# Source: patent US20200407397A1 (published 2020)
# Experiments:
# [1] = target: T1, recombinant LDHA (human, UniProt P00338 1-332)
# [2] = target: T1, recombinant LDHA; remark: listed apart in the source
binder,measurement,setting,value
AQRMNTAFTP [FLCN-10 peptide],Ki,[1],57.4 nM
same,IC50,[2],82.2 nM
